From US20140356418A1
pKd: −log10 of the molar value.

Columns and labels:
[1] = target: Aβ42 fibrils (immobilized Aβ(1-42) fibrils) (UniProt P05067); assay: SPR (Sensi Q), immobilized Aβ(1-42) fibrils, fit of a single curve; inset table row 2 (the row's concentration, 1 or 3 µM, is not given)
[2] = target: Aβ42 fibrils (immobilized Aβ(1-42) fibrils) (UniProt P05067); assay: SPR (Sensi Q), immobilized Aβ(1-42) fibrils, fit of a single curve; (the concentration, 1 or 3 µM, is not given)
[3] = target: Aβ42 fibrils (immobilized Aβ(1-42) fibrils) (UniProt P05067); assay: SPR, Aβ fibrils (summary of the Examples)
[4] = target: Aβ42 fibrils (immobilized Aβ(1-42) fibrils) (UniProt P05067); assay: SPR, Aβ42 fibrils immobilized, Langmuir 1:1 fit
[5] = target: Aβ42 fibrils (immobilized Aβ(1-42) fibrils) (UniProt P05067); assay: SPR, Aβ42 fibrils immobilized, Langmuir 1:1 fit, curves fitted separately; lower end of the range from curves fitted separately (1, 3, 6 µM RI-OR2-TAT)
[6] = target: Aβ42 fibrils (immobilized Aβ(1-42) fibrils) (UniProt P05067); assay: SPR, Aβ42 fibrils immobilized, Langmuir 1:1 fit, curves fitted separately; upper end of the range from curves fitted separately (1, 3, 6 µM RI-OR2-TAT)

Sequence of Aβ42 fibrils (immobilized Aβ(1-42) fibrils) (P05067 672-713 limits assumed): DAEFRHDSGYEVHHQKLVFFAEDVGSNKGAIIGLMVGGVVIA

“PINPs (Peptide Inhibitor NanoParticles): RI-OR2-TAT covalently attached to nanoliposomes” gave a pKd [1] of 7.35, a koff [1] of 5.31e-05 s⁻¹ and a kon [1] of 1190 M⁻¹ s⁻¹. The pKd [2] was 7.83, the koff [2] was 6.71e-05 s⁻¹ and the kon [2] was 4520 M⁻¹ s⁻¹. It also gave a pKd [3] of 7.36 to 7.85.

In the case of “RI-OR2-TAT (Ac-rGffvlkGrrrrqrrkkrGy-NH2) (peptide)”, the koff [4] was 0.00037 s⁻¹, the kon [4] was 3680 M⁻¹ s⁻¹ and the pKd [1] was 7.38. It also gave a koff [1] of 0.000994 s⁻¹, a kon [1] of 23900 M⁻¹ s⁻¹ and a pKd [5] of 6.90 to 7.24. It also gave a pKd [2] of 7.12, a koff [2] of 0.00096 s⁻¹ and a kon [2] of 12700 M⁻¹ s⁻¹. For the same substance, the pKd [6] was 6.90 to 7.24 and the pKd [3] was 7.12 to 7.39.
